The results in this text go back to paper PMC6697640.

The test concerns the target 3X N-terminal FLAG-tagged PTEN (phosphatase and tensin homolog), wild type (UniProt P60484). The experiment in a line: native gel or EMSA; co-IPs from total lysate of BT-549-PTEN cells followed by Western blot under non-denaturing conditions; dimers seen in the input lane and in the co-immunoprecipitate. Background: In EMSA bound probe runs differently from free probe, usually more slowly.

In turn, “3X N-terminal FLAG-tagged PTEN (phosphatase and tensin homolog), wild type, P60484 1-403 (enzyme; other documents disagree on this pair)” gave a stoichiometry N of 2.

The stoichiometry N is the number of molecules, sites or subunits per partner or assembly.
